Laboratory results taken from the nanobody polyreactivity screen of Harvey et al. (2022).

Test: yeast display, Sf9 membrane polyspecificity reagent, FACS + sequencing; frameworks hold sequencing errors
In short: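 Nanobodies from a synthetic yeast display library (Saccharomyces cerevisiae BJ5465), induced 36–48 hours with galactose, were stained 1 hour at 4 °C with 10% biotinylated, detergent-solubilized Sf9 membrane reagent, enriched on streptavidin microbeads, then FACS-sorted. Anti-HA (expression) and streptavidin (reagent binding) fluorescence set low and high (top ~1%) gates. Polyreactivity labels come from the gate of origin. Genes were colony-PCR amplified, MiSeq 2 × 250 sequenced and filtered by CDR length.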

Row | Sequence | polyreactivity (PSR sort gate)
1 | QGQLVESGGGLVQAGGSLRLSCAASGRIFNRNAMGWYRQAPGKERELVAAITRGGRTNYADSVKGRFTISRDNAQNTVYLQMNSLKPEDTAVYYCAAAYYGSHGRYDYWGQGTQVTVSS | high polyreactivity
2 | QVQLIESGGGLVQAGGSLRLSCAASGSIFQYTMGWYRQAPGKERELVAAITRSGSSTYYADSVKGRFTISRDNAKNTVYLQMNSLKPEDTAVYYCAHTIRRVLGYGSWGQGTQVTVSS | high polyreactivity
3 | RVQLVESGGGLVQAGGSLRFSCAASGRIFPNNAMGWSSQAPGKARELVAAISRTGGSTYYADSVKGRFTISRDNAKNTVYLQMNSLKPEDTAVYYCAASHARWSPYYSRYYYWGQGTQVTGSS | high polyreactivity
4 | QVQLVESGGGLVQAGGSLRLSCGSSGSIFKTNAMGWYRQAPGKERELVAANTWRGGSTYYADSVKGRFTNSRDNAKNTVYLQRNSLKPEDTAVYYCAARQYYGAASYRYYYWGQGTQVTVSS | high polyreactivity
5 | QVQLVESGGGLVQAVGSHRLSCAASGRIFGNNVMGWYRQEPGKERELVAANTFSGTSTYYADSVKGRFTISRDNAKNTVYLQMNSLKPEDTAVYYCAKYRYADYYSPGYDYWGQGTQVTVSS | low polyreactivity
6 | QVQLVESGGGLVQAGGSLRLSCAASGSIFGAYAMGWYRQAPGKERELVASITGNGGSTYYADSVKGRFTISRDNAKNTVYLQMNSLKPEDTAVYDCAADDYSTRYRWFYYGSPYYYWGQGTQVTVSS | high polyreactivity
7 | QVQLVESGGGLVQAGGSLRLSCAASGFTFYYYAMGWYRQAPGKERELVAAISKSGGSTYYADSVKGRFTISRDNAKNTVYLQMNSLKPEDTAVYYCARDKGSSGKGHGYWGQGTQVTVSS | high polyreactivity
8 | HVQVVESGGGLVQAGGSLRLSCAASGRIFLLYTMGWYRQAPGKERELVAAISSDDSTNYADSVKGRFTISRDNAKNTVYIQMNSLKPEDTAVYYCAAGRKSYYRIYSEYVEFDYWGQGTQVTVSS | low polyreactivity
9 | QVQLVESGGGLVQAGGSLRLSCAASGSIFYKNAMGWYRQAPGKERELVAAISSSGGSTRYADSVKGRFTISRDNSKNTVSLQMNSLKPEDTAVYYCAASGSRTSRGYWGQGTQVTVSS | high polyreactivity
10 | QVQLVESGGGLVQAGGSLRLSCAASGTFAFYTMGWYRQAPGKERELVAAISWDGGDTYYADSVKGRFTISRDNAKNNVYLQMNSLKPEDTAVYYCAAELGYYVYGSYYSYDYCGQGTQVTVSS | high polyreactivity
11 | QVQLVESGGGLVQAGGSLRLSCAASGSTFPRNAMGWYRQAPGKERELVARITWSGGDTYYADSVKGRFTISRDNSKNTVYLQMISLKPEDTAVYYCAARWYRSVLAKVGYGYWGQGTQVTVSS | high polyreactivity
12 | QVPLVETGGGLVQAGGSLRLSCAASGRTFNVYAMGWYRQAPGKERELVASITWDDGTTYNADSVKGRFTNSRDNAKNTVYLQMNSLKPEVTAVYYCAADGIYRGAWSTVYESPGYDYWGQGTQVTVSS | low polyreactivity
13 | QVQLVESGGGLVQAGGSLRLSCAASGSIFPQNGMGWYRQAPGKERELVAAISSNGDNTYADSVKGRFTISRDNAKNTVYLQMNSLKPEDTAVYYCAAERRRTAGGVYHPWEDYWGQGTQVTVSS | low polyreactivity
14 | QVQLVESGGGLVQAGGSLRLSCAASGSIFLVNAMGWSRQAPGKERELVASITWRGGRTYYAASVKGRFTISRDNAKNTVYLQMNSLKPEDTAVYYCAARNYRTGERLRYDYWGQGTQVTVSS | low polyreactivity
15 | QVQLVESGGGLVQAGGSLRLICAASGSIFARYAMGWYRQAPGKERELVAAITGRGGSTYYADSVKGRFTISRDNAKNTVYLQMNSLKPEDTAVYYCNAVGHTSIRRALDILDYWGQGTQVTVSS | high polyreactivity
16 | QVQVVESGGGLVQAGGSLRLSCAASGFTFAWYTMGWYRQAPGKERELVAAISTGGNTYYADSVKGRFTISRDNAKNTVYLQMNSLKPEDTAVYYCATRPRGQTYNYWGQVTQVTVSS | high polyreactivity
17 | QVQLVESGGGLVQAGGRLRLSCAASGSTFRGYAMGWYRQAPGKEREFVAAITYTGSSTTYADSVIGRFTISRDNAKTTVYLQMNSLKPEYTADFYCAARYVASRIYKRYYWGQGTQVTVSS | high polyreactivity
18 | QVQLVESGGGLVQAGGSLRLSCAASGSIFYTYVMGWYRQAPGKERELVAAISASGVRTYYADSVKGRFTISRDNAKNTVYLQMNSLKPEDTAVYYCAARYATWYFRRGRKTSDYDYWGQGTQVTVSS | high polyreactivity
19 | QVQLVESGGGLVQAGGSLRLSCAASGFSFDSNAMGWYRQAPGKERELVAVITSSGGRTYYADSVKGRFTISRDNAKNTVYLQMNSLKPEDTAVYYCAAAKKFFWYEYDYWGQGTQVSVSS | high polyreactivity
20 | QVQLVESGGGLVKAGGSIRLSCAASGSIFYRNTMGWYRQAPRKERQLVAAISKTGGSTYYSDSVKGRFTISRDNAKNTVYVQMNSLKPEDTAVYYCNRAPYALRVLCTGIISGHDYWGQGTQVTVSS | high polyreactivity
21 | QVQLVESGGGLVQAGGSLRLSCAASGYIFDDNAMGWYRQAPGKERELVATNYADSVKGRFTISRDNAKNTVYLQMNSLKPEDTAVFYCAKAGYRSEFEYWGQGTQVTVSS | low polyreactivity
22 | QVHRGESGGGLVQAGGSLRLSCPASGFIFRYYPMGWYRQAPGKESELVASISYSGGTTYYADSVKGRFTISRDNAKNTVYLQMNSLKPEDTAVYYCNVYSRTHYQTYTDDYWGQGTQVTVSS | high polyreactivity

Row | Sequence | polyreactivity (PSR sort gate)
23 | QVQLVESGGGLVQAGGSLRLSCAASGFIFYRYTMGWYRQAPGKERELVASISSGGSTNYADSVKGRFTISRDNAKNTVYLQMNSLKPEDTAVYYCAASRFRWVQRYDYWGQGTQVTVSS | high polyreactivity
24 | QVQLVESGGGLVQAGGSLRLSCAASGSTFNNAMGWYRQPPGKERELVAAITRSGVRTYYADSVKGRFTISRDNAKNTVYLQMNSLKPEDTAVYYCAAGFQSRRYYAGYEYWGQGTQVTVSS | high polyreactivity
25 | QVQLVESGGGLVQAGGSLRLSCAASGRIFSYAMGWYRQAPGKERELVAGSTYYADSVKGRFTISRDNAKNTVYLQMNSLKPEDTAVYYCNVGGYGLRGDYWGQGTQVTVSS | low polyreactivity
26 | QVQLVESGGGLVQAGGSLRLSCAASGRIFDIYAMGWYRQAPGKERELVATITRSAGRTYYADSVKGRFTISRDNAKNTVYLQMNSLKPEDTAVYFCAASYWDTEPGYREYEYWGQGTQVTVSS | low polyreactivity
27 | QVQLVESGGGLVQAGGSLRLSCAASGFIFGRYTMGWYRQAPGKERELVAAISGSDVSTYYADSVKGRFTISRDNAKITVYLQMNRLKPEDTAVYYCAADAPWAYYEYDYWGQGTQVTVSS | low polyreactivity
28 | QVQLVESGGGLVQAGGSLRLSCAASGIIFLVYAMGWYRQAPGKERELVAGISGSATSTNYADSVKGRFTISRDNAKNTVYLQMNSLKPEETAVYYCAASYYGYYVPDNSKYGYWGQGTQVTVSS | low polyreactivity
29 | QVQLVESGGGLVQAGGSLRLSCAASGRIFWGYVMGWYRQAPGKERELVAAISSGGDTHYADSVKGRFTISRDNAKNTVYLQMNSLKPEDTAVYYCAKENQYYDSKVAGVLTGLYDYWGQGTQVTVSS | low polyreactivity
30 | QVQLVESGGGLVQAGGSLRLSCAASGSIFYSNVMGWYRQAPGKERELVAAIRYSGVGTYYADSVKGRFTISRDNAKNTVYLQMNSLKPEDTAVYYCNAVTKVGYLRRRDYWGQGTQVTVSS | low polyreactivity
31 | QVQLVESGGGLVQAGGSLRLSCAASGIILVAYAMGWYRPAPGKERELVAAITTSGTSTYYADSVKGRFTISRDNAKNTVYVQMNSLTPEDTAVYYCAVRQRYGPARYDYWGQGTQVTVSS | high polyreactivity
32 | QVQLVESGGGLVQAGGSLRLSCAASGSIFYPNVMGWYRQAPGKERELVAAIRTSGGSTYYADSVKGRFTISRDNAKNTVYLQMNSLKPEDTAVYYCAADYIYVKYEYWGQGTQVTVSS | high polyreactivity
33 | QVQLVDSGGGLVQAGGSLRLTCAASGGIFKRYAMGWYRQAPGKERELVAAISGRGGGTYYADSVKGRFTISRDNAKNTVYLQMNSLKPEDTAVYYCNARLSWSAFGYWGQGTQVTVSS | high polyreactivity
34 | QVQLVESGGGLVQAGGSLRLSCAASGRIFYIYAMGWYRQAPGKERELVAAISSGGTTNYADSVKGRFTISRDNAKNTVYLQMNSLKPEDTAVYYCAAYWRSRNRFYWGQGTQVTVSS | high polyreactivity
35 | QVQLVESGGGLVQAGGSLRLSCAASGSTFFVYAMGWYRQAPGNESEFVAAISKSGGSTYYADSEKGRFTISRDNAKNTVYLQMNSLKPEDTAVYYCAKYSGVNSIVGNDYWGQGTQVTVSS | high polyreactivity
36 | QVQLVESGGGLVQAGGSLRLSCAASGLTFKYYAMGWYRQAPGKERELVAAISWRGGSTYYADSVKGRFTISRDNAKNTVYLQMNSLKPEDTAVYYCAAPGNNVRNAPRKRDYWGQGTQVTVSS | high polyreactivity
37 | QVQLVESGGGLVQAGGSLRLSCAASGRIFGVYAMGWYRQAPGKERELVAVINGRGSRTYYADSVKGRFTISRDNAKNTVYLQMNSLKPEDTAVYYCAAGYPDSEYDYWGQGTQVTVSS | high polyreactivity
38 | QVQLQESGGGLVQAGGSLRLSCAASGTITFAAYMGWYRQAPGKEREYVASIGYGATTYYADSEKGRFTISRDNANNTVYLPMNSLKPGDTAVYYCAVDRSPQYRYLYYWGQGTQVTVCS | high polyreactivity
39 | QVQLVESGGGLVQAGGSLRLSCAASGSTFSTYTMGWYRQAPGKERELVASISGRGGRTYYADSVKGRFTISRDNAKNTVYLQMNSMKPEDTAVYYCAARYWTLPWYQRGDYWGQGTQVTVSS | high polyreactivity
40 | QVQLVESRGGLVQAGGSLRLSCAASGYTFDANAMGWYRQAPGKERELVASISSISDSTDYADSVKGRFTISRDNAKNTVYLQMNSLKPVDTAVYYCARSDVKPGRQERDYWGQGTQVTVSS | low polyreactivity
41 | QVQLVESGGGLVQAGGSLRLSCAASGSTFNRYGMGWYIQAPGKERELVAAISGSNGGTYYADSVKGRFTISRDNAKNTVYLQMNSLKPEDTAVYFCAKVRAYTRLGLTVSMDYWGQGTKVTVSS | high polyreactivity
42 | QVQLVESGGGLVQAGGSLRLSCAASGFIFDYYAMGWYRQAPGKERELVASISGDDGRTYYADSVTGRFTISRDNAKNTVYLQMNSLKPEDTAVYDCNAEWGVLNYDYWGQGTQVTVSS | low polyreactivity
43 | QVQLVESGGGLVQAGGSLRLSCAASGRIFSIYGMGWYRQAPGKERELVAVISGSVGITYYADSVKGRFTISRDNAKNTVYLQMNSLKPEDTAVYYSNAKVRRRKYDYWGQGTQVTVSS | high polyreactivity
